What was measured:
[1] = target: E2s mutant Asn560Ala (Hepatitis E virus (HEV)) (UniProt Q81871); test: non-reducing SDS-PAGE; wild type E2s and its Ala mutants (expressed in E. coli) on non-reducing SDS-PAGE; dimer or monomer band
[2] = target: E2s mutant Gln531 to Ala (Hepatitis E virus (HEV)) (UniProt Q81871); test: as above
[3] = target: E2s mutant Gln568 to Ala (Hepatitis E virus (HEV)) (UniProt Q81871); test: as above
[4] = target: E2s mutant Ile529Ala (Hepatitis E virus (HEV)) (UniProt Q81871); test: as above
[5] = target: E2s mutant Pro604 to Ala (Hepatitis E virus (HEV)) (UniProt Q81871); test: as above
[6] = target: E2s mutant Ser527 to Ala (Hepatitis E virus (HEV)) (UniProt Q81871); test: as above
[7] = target: E2s mutant Thr489 to Ala (Hepatitis E virus (HEV)) (UniProt Q81871); test: as above
[8] = target: E2s, protruding homodimer domain of HEV capsid protein (wild type) (Hepatitis E virus (HEV)) (UniProt Q81871); test: as above
monoclonal antibody 8C11 = test: CLIA (chemiluminescent immunoassay); details: rE2-coated microplate; 8C11-HRP only; parent: est. 1.0e7; read off a plot

E2s mutant Asn560Ala (from UniProt Q81871 455-603) (domain or fragment)
stoichiometry N [1]: 2

E2s mutant Gln531 to Ala (from UniProt Q81871 455-603) (domain or fragment)
stoichiometry N [2]: 2

E2s mutant Gln568 to Ala (from UniProt Q81871 455-603) (domain or fragment)
stoichiometry N [3]: 2

E2s mutant Ile529Ala (from UniProt Q81871 455-603) (domain or fragment)
stoichiometry N [4]: 2

E2s mutant Pro604 to Ala (from UniProt Q81871 455-603) (domain or fragment)
stoichiometry N [5]: 2

E2s mutant Ser527 to Ala (from UniProt Q81871 455-603) (domain or fragment)
stoichiometry N [6]: 2

E2s mutant Thr489 to Ala (from UniProt Q81871 455-603) (domain or fragment)
stoichiometry N [7]: 2

E2s, protruding homodimer domain of HEV capsid protein (wild type) (from UniProt Q81871 455-603) (domain or fragment)
stoichiometry N [8]: 2

E2s, protruding homodimer domain of HEV capsid protein (wild type) (from UniProt Q81871) I529A
response (monoclonal antibody 8C11): 9.7e+06 RLU/s

E2s, protruding homodimer domain of HEV capsid protein (wild type) (from UniProt Q81871) N560A
response (monoclonal antibody 8C11): 8.7e+06 RLU/s

Reference: publication PMC4259887
